Measurements reported in PMC5865148 (Nature Communications, 2018).
One block for each binder: values may come before it.

Assays:
Details in all cases: both partners purified
[1] = biological target: T1, soluble human BAFF (aa 134-285) L240A (human, UniProt Q9Y275 134-285, L240A); experiment: SPR; about 1000 RU of belimumab Fab immobilised on a CM-5 chip by amine coupling; BAFF wild type or mutant flowed at 2 to 250 nM; 20 mM sodium citrate pH 5.6, 200 mM NaCl; 25 °C; BIAcore T100; sensorgrams locally fitted; in duplicate
T1 construct: also called BAFF L240A; source: E. coli BL21 (DE3), purified as described for wild-type BAFF; not shown: His6, N-terminal, cleaved

[2] = biological target: T2, soluble human BAFF (aa 134-285) L224A (human, UniProt Q9Y275 134-285, L224A); experiment: as above
T2 construct: also called BAFF L224A; source: E. coli BL21 (DE3), purified as described for wild-type BAFF; not shown: His6, N-terminal, cleaved

[3] = biological target: T3, soluble human BAFF (aa 134-285) D222A (human, UniProt Q9Y275 134-285, D222A); experiment: as above
T3 construct: also called BAFF D222A; source: E. coli BL21 (DE3), purified as described for wild-type BAFF; not shown: His6, N-terminal, cleaved

[4] = biological target: T4, soluble human BAFF (aa 134-285) R231A (human, UniProt Q9Y275 134-285, R231A); experiment: as above
T4 construct: also called BAFF R231A; source: E. coli BL21 (DE3), purified as described for wild-type BAFF; not shown: His6, N-terminal, cleaved

[5] = biological target: T5, soluble human BAFF (aa 134-285) N242A (human, UniProt Q9Y275 134-285, N242A); experiment: as above
T5 construct: also called BAFF N242A; source: E. coli BL21 (DE3), purified as described for wild-type BAFF; not shown: His6, N-terminal, cleaved

[6] = biological target: T6, soluble human BAFF (aa 134-285) R265A (human, UniProt Q9Y275 134-285, R265A); experiment: as above
T6 construct: also called BAFF R265A; source: E. coli BL21 (DE3), purified as described for wild-type BAFF; not shown: His6, N-terminal, cleaved

[7] = biological target: T7, soluble human BAFF (aa 134-285) I233A (human, UniProt Q9Y275 134-285, I233A); experiment: as above
T7 construct: also called BAFF I233A; source: E. coli BL21 (DE3), purified as described for wild-type BAFF; not shown: His6, N-terminal, cleaved

[8] = biological target: T8, soluble human BAFF (aa 134-285) Y206A (human, UniProt Q9Y275 134-285, Y206A); experiment: as above
T8 construct: also called BAFF Y206A; source: E. coli BL21 (DE3), purified as described for wild-type BAFF; not shown: His6, N-terminal, cleaved

[9] = biological target: T9, soluble human BAFF (aa 134-285) E266A (human, UniProt Q9Y275 134-285, E266A); experiment: as above
T9 construct: also called BAFF E266A; source: E. coli BL21 (DE3), purified as described for wild-type BAFF; not shown: His6, N-terminal, cleaved

[10] = biological target: T10, soluble human BAFF (aa 134-285) Y163A (human, UniProt Q9Y275 134-285, Y163A); experiment: as above
T10 construct: also called BAFF Y163A; source: E. coli BL21 (DE3), purified as described for wild-type BAFF; not shown: His6, N-terminal, cleaved

[11] = biological target: T11, soluble form of human BAFF (aa 134–285) (human, UniProt Q9Y275); experiment: SEC; analytical gel filtration, Superdex 200 Increase 10/300 GL, 20 mM HEPES pH 7.0, 200 mM NaCl; BAFF alone, Fab alone, and BAFF incubated 1 h with an excess of Fab
T11 construct: Cloned in pET-28a; On gel filtration it runs as trimer and as 60-mer (20 trimers); the trimer fractions were collected; also called BLyS; source: E. coli BL21 (DE3), purified (HisTrap, thrombin cleavage, gel filtration; trimer fractions collected); not shown: His6, N-terminal, cleaved

Kd [1]: 1.45 nM
koff [1]: 0.000145 s⁻¹
kon [1]: 101000 M⁻¹ s⁻¹
Kd [2]: 7.77 nM
koff [2]: 0.00119 s⁻¹
kon [2]: 153000 M⁻¹ s⁻¹
Kd [3]: 4.34 nM
koff [3]: 0.000357 s⁻¹
kon [3]: 82200 M⁻¹ s⁻¹
Kd [4]: 2.85 nM
koff [4]: 0.000128 s⁻¹
kon [4]: 45000 M⁻¹ s⁻¹
Kd [5]: 1.22 nM
koff [5]: 0.000167 s⁻¹
kon [5]: 137000 M⁻¹ s⁻¹
Kd [6]: 3.79 nM
koff [6]: 5.59e-05 s⁻¹
kon [6]: 14800 M⁻¹ s⁻¹
Kd [7]: 2.64 nM
koff [7]: 0.000328 s⁻¹
kon [7]: 124000 M⁻¹ s⁻¹
Kd [8]: 14.1 nM
koff [8]: 0.00783 s⁻¹
kon [8]: 556000 M⁻¹ s⁻¹
Kd [9]: 2.34 nM
koff [9]: 0.000245 s⁻¹
kon [9]: 105000 M⁻¹ s⁻¹
Kd [10]: 1.45 nM
koff [10]: 0.000137 s⁻¹
kon [10]: 94400 M⁻¹ s⁻¹
B1: belimumab Fab (Fab, V domains shown)
VH: QVQLQQSGAEVKKPGSSVRVSCKASGGTFNNNAINWVRQAPGQGLEWMGGIIPMFGTAKYSQNFQGRVAITADESTGTASMELSSLRSEDTAVYYCARSRDLLLFPHHALSPWGRGTMVTVSS
VL: SSELTQDPAVSVALGQTVRVTCQGDSLRSYYASWYQQKPGQAPVLVIYGKNNRPSGIPDRFSGSSSGNTASLTITGAQAEDEADYYCSSRDSSGNHWVFGGGTELTVLG
notes: followed by HHHHHH (the tag); Fab of a fully human IgG1 lambda antibody; also called belimumab Fab fragment; Benlysta Fab; source: E. coli Top10F, periplasmic expression, purified (HisTrap, gel filtration)

stoichiometry N [11]: 1 BAFF protomer per Fab (printed 3:3)
B2: belimumab Fab (Fab, V domains shown)
VH: QVQLQQSGAEVKKPGSSVRVSCKASGGTFNNNAINWVRQAPGQGLEWMGGIIPMFGTAKYSQNFQGRVAITADESTGTASMELSSLRSEDTAVYYCARSRDLLLFPHHALSPWGRGTMVTVSS
VL: SSELTQDPAVSVALGQTVRVTCQGDSLRSYYASWYQQKPGQAPVLVIYGKNNRPSGIPDRFSGSSSGNTASLTITGAQAEDEADYYCSSRDSSGNHWVFGGGTELTVL
notes: heavy chain of the Fab of belimumab (fully human IgG1 lambda); in the deposited structures PDB 5Y9J and 5Y9K; lambda light chain of belimumab; also called Benlysta; belimumab Fab fragment; source: E. coli Top10F, periplasmic expression, purified (HisTrap, gel filtration)
